Reference: the supplement of paper PMC10065799, “High-throughput profiling of sequence recognition by tyrosine kinases and SH2 domains using bacterial peptide display” (eLife, 2023)

Key:
AncSZ = assay: phosphorylation enrichment, bacterial display (enrichment ratio); higher = better substrate or ligand; peptides without Tyr show the background
EPHB1 = EPHB1 (UniProt P54762); assay: as above
EPHB2 = EPHB2 (UniProt P29323); assay: as above
FGFR1 = FGFR1 (UniProt P11362); assay: as above
FGFR3 = FGFR3 (UniProt P22607); assay: as above
Chain of FGFR3 (P22607 whole entry, looked up): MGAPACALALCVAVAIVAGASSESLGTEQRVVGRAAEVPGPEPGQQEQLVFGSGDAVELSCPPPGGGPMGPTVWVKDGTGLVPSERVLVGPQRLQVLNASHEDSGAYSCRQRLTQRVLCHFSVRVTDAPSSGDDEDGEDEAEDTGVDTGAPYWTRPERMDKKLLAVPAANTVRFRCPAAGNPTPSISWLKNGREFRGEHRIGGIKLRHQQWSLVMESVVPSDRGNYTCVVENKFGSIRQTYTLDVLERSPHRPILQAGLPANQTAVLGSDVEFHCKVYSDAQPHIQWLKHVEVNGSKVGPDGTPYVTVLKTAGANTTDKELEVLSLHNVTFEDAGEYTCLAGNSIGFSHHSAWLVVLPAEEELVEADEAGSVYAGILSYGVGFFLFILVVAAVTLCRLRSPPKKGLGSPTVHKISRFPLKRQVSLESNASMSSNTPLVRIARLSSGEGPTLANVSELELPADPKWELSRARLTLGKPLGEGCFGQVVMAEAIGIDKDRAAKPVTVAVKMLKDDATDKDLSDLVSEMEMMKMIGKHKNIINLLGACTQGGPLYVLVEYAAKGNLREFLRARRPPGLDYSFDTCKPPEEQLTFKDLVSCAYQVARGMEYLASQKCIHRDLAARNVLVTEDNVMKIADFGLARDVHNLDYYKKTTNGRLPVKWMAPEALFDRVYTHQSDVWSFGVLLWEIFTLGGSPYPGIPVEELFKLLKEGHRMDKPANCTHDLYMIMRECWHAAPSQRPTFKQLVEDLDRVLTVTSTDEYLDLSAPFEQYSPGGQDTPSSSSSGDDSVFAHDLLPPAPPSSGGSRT

Fer (mouse) = assay: as above
Fes = Fes (UniProt P07332); assay: as above
Chain of Fes (P07332 whole entry, looked up): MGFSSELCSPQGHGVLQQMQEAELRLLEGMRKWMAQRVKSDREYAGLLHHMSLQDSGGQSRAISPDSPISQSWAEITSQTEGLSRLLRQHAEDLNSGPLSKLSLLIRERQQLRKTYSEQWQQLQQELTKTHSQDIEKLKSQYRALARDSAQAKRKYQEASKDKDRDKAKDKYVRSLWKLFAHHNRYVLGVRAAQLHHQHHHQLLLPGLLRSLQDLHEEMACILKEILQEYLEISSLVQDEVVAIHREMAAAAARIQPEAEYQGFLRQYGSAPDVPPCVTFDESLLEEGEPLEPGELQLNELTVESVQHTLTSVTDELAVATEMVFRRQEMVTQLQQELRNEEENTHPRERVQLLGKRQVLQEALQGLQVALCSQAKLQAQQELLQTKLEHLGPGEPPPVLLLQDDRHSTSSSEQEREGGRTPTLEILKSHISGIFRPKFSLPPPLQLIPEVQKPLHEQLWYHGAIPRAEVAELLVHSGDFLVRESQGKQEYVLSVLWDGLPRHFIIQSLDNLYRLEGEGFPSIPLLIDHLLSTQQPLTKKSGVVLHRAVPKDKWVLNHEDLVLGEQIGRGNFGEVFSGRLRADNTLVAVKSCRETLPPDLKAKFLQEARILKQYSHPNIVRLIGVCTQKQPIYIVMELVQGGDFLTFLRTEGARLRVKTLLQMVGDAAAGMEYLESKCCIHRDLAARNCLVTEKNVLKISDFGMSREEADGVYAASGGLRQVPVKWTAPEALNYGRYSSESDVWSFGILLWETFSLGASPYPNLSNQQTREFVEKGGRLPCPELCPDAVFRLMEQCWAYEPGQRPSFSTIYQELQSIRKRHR

Fyn = Fyn (UniProt P06241); assay: as above
Chain of Fyn (P06241 whole entry, looked up): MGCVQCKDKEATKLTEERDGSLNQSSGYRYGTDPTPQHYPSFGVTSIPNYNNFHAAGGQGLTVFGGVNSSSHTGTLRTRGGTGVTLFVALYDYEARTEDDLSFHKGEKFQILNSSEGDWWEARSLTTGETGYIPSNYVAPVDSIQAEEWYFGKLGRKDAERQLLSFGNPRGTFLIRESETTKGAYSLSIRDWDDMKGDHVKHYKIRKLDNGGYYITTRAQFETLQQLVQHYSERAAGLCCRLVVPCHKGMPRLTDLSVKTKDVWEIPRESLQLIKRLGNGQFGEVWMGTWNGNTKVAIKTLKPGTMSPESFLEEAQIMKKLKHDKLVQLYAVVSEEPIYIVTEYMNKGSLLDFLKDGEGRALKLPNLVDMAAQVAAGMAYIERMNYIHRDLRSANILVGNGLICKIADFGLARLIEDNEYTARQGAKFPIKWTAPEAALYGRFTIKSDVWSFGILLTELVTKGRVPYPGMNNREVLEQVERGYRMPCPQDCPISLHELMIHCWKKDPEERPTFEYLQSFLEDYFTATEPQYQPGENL

Hck = Hck (UniProt P08631); assay: as above
Chain of Hck (P08631 whole entry, looked up): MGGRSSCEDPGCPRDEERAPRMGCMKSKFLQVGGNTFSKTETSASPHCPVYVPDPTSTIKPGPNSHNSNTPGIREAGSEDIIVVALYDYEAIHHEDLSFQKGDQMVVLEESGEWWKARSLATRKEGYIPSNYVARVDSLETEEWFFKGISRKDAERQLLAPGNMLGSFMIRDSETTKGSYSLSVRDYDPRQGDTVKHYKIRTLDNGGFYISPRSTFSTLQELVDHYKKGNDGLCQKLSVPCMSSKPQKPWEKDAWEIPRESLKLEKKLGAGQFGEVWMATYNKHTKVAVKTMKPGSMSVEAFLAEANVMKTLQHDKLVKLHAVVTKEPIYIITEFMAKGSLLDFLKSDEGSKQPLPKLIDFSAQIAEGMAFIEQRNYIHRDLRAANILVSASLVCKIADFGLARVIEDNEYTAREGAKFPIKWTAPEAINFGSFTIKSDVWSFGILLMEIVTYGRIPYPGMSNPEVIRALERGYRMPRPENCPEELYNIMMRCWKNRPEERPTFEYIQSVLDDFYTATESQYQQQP

Jak2 = Jak2 (UniProt O60674); assay: as above
MERTK = MERTK (UniProt Q12866); assay: as above
c-Abl (mouse) = assay: as above
c-Src = assay: as above
Grb2 SH2 = Grb2 SH2 (UniProt P62993); assay: SH2 binding enrichment of the phosphorylated peptide, bacterial display (enrichment ratio); higher = better substrate or ligand; peptides without Tyr show the background
Chain of Grb2 SH2 (P62993 whole entry, looked up): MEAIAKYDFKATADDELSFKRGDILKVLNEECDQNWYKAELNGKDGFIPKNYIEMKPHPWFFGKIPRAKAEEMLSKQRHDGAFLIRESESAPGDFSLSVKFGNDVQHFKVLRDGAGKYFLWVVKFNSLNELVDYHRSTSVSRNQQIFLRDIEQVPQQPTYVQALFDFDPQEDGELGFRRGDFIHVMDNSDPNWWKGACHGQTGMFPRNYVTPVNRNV

SHP2-C SH2 = assay: as above
c-Src SH2 = assay: as above
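Wherever SH2 binding enrichment of the phosphorylated peptide, bacterial display is given: peptide library displayed on the E. coli surface as eCPX fusions, selected cells deep-sequenced, score is each peptide's frequency after selection divided by its frequency in the input.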
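Wherever phosphorylation enrichment, bacterial display is given: 11-residue human phosphosite peptides and single-mutation variants displayed on the E. coli surface, counted by deep sequencing, each peptide's frequency after selection divided by its frequency in the unselected input library; frequency after pTyr selection over input frequency; kinase dosed for 20-30% of maximal phosphorylation in three min.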

Chain of FGFR1 (P11362 whole entry, looked up): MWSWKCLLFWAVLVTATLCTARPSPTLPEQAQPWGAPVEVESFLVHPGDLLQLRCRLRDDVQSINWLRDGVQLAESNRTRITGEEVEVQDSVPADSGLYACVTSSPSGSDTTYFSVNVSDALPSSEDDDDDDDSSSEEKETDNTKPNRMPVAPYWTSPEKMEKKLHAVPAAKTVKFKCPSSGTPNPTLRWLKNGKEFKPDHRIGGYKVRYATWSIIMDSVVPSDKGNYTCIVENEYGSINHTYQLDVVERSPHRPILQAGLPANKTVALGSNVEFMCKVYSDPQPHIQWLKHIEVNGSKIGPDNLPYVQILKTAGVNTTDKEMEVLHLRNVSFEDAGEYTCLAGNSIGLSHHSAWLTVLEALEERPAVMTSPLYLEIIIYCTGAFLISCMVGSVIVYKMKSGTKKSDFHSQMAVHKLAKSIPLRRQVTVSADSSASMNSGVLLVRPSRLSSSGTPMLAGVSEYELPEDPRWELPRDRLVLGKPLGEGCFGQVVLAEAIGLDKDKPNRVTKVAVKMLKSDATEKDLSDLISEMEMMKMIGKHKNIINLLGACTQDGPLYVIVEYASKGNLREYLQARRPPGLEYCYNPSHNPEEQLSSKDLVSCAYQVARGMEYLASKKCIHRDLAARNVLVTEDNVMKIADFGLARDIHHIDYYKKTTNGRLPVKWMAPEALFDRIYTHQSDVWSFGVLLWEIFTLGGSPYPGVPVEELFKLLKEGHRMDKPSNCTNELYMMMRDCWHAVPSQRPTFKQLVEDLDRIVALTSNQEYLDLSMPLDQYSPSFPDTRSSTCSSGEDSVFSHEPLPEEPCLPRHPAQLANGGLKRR
Chain of EPHB2 (P29323 whole entry, looked up): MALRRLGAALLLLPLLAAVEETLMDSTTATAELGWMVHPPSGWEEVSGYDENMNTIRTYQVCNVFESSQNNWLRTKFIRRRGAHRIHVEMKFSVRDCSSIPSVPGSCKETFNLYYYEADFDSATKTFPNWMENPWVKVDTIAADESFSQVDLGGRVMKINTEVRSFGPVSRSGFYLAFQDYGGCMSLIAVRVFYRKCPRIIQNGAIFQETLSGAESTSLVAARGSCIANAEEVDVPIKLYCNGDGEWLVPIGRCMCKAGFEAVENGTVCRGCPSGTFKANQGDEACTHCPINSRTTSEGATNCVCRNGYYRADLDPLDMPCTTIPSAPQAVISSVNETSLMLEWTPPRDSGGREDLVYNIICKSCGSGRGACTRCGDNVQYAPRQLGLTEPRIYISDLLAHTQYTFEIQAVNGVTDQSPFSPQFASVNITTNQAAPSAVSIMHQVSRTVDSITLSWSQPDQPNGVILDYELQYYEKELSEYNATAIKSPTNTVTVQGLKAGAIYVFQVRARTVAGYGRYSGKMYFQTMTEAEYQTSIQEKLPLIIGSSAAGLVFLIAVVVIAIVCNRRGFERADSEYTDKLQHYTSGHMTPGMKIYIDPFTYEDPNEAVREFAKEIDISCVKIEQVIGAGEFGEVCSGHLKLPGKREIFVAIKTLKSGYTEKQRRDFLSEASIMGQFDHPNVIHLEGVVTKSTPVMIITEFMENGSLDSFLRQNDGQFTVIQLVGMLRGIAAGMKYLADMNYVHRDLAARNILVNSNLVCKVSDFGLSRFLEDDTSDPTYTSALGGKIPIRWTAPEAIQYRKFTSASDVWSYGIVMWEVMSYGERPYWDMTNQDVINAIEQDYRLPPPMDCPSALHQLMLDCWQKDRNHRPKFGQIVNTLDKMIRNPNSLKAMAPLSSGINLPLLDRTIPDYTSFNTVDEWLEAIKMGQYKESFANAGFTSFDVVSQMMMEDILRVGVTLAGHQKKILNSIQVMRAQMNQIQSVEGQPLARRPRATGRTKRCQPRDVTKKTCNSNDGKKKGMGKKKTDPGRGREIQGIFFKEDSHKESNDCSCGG

Sequence | phosphorylation enrichment (AncSZ) | phosphorylation enrichment (EPHB1) | phosphorylation enrichment (EPHB2) | phosphorylation enrichment (FGFR1) | phosphorylation enrichment (FGFR3) | phosphorylation enrichment (Fer (mouse)) | phosphorylation enrichment (Fes) | phosphorylation enrichment (Fyn) | phosphorylation enrichment (Hck) | phosphorylation enrichment (Jak2) | phosphorylation enrichment (MERTK) | phosphorylation enrichment (c-Abl (mouse)) | phosphorylation enrichment (c-Src) | SH2 binding enrichment (Grb2 SH2) | SH2 binding enrichment (SHP2-C SH2) | SH2 binding enrichment (c-Src SH2)
AAALAYGLDKS [HSPA9_Y230] | 0.598 | 0.442 | 0.4 | 0.455 | 0.477 | 0.467 | 1.12 | 0.388 | 0.419 | 1.2 | 0.398 | 0.499 | 0.528 | 0.69 | 0.637 | 0.423
AAGGRYDGLLG [HARS2_Y364_V368L] | 0.631 | 0.471 | 0.415 | 0.457 | 0.531 | 0.452 | 0.85 | 0.548 | 0.459 | 0.645 | 0.451 | 1.01 | 0.468 | 0.785 | 0.633 | 0.545
AAGGRYDGLVG [HARS1_Y363] | 0.677 | 0.357 | 0.351 | 0.291 | 0.48 | 0.306 | 0.615 | 0.346 | 0.351 | 0.489 | 0.378 | 0.538 | 0.348 | 0.806 | 0.514 | 0.505
AAQNCYKVTNA [TPI1_Y105_G110A] | 0.522 | 0.355 | 0.455 | 0.367 | 0.46 | 0.354 | 0.639 | 0.454 | 0.36 | 0.552 | 0.62 | 0.466 | 0.44 | 1.15 | 0.639 | 0.608
AAVNGYAFGGG [ECHS1_Y137] | 0.495 | 0.347 | 0.389 | 0.435 | 0.406 | 0.473 | 0.553 | 0.423 | 0.344 | 0.521 | 0.324 | 0.548 | 0.379 | 0.75 | 0.647 | 0.455
ADKAAYLQNLN [MYH1_Y389] | 0.718 | 0.44 | 0.52 | 0.458 | 0.637 | 0.53 | 0.747 | 0.645 | 0.61 | 0.617 | 0.522 | 0.488 | 0.601 | 0.659 | 0.73 | 0.39
AEFGLYAAMVR [VSX2_Y222_G223A_YF] | 1.29 | 2.79 | 2.14 | 0.614 | 0.888 | 1.4 | 1.24 | 2.44 | 4.34 | 1.54 | 2.69 | 1.09 | 2.17 | 0.898 | 0.581 | 0.494
AELVQYYMEHH [PTPN11_Y80] | 1.2 | 1.06 | 1.01 | 0.827 | 0.954 | 0.494 | 1.26 | 0.654 | 0.974 | 1.19 | 0.68 | 0.826 | 0.845 | 0.688 | 1.13 | 0.683
AEMTGYVMTRW [MAPK13_Y182_V184M] | 1.29 | 0.656 | 0.578 | 0.653 | 0.885 | 0.537 | 1.23 | 0.493 | 0.561 | 1.11 | 0.364 | 0.709 | 0.397 | 0.67 | 0.594 | 0.467
AFGGGYGGVLT [KRT19_Y65_YF] | 0.699 | 0.478 | 0.407 | 0.338 | 0.446 | 0.312 | 0.647 | 0.378 | 0.454 | 0.625 | 0.286 | 0.685 | 0.38 | 0.784 | 0.719 | 0.455
AGADGYGFLAP [FOXL2_Y186_YF] | 0.846 | 0.391 | 0.508 | 0.652 | 0.694 | 0.611 | 0.737 | 0.517 | 0.71 | 0.857 | 0.618 | 0.698 | 0.797 | 0.832 | 0.661 | 0.456
AGGTRYRYVSQ [UCN3_Y95_R91G] | 0.529 | 0.574 | 0.525 | 0.397 | 0.381 | 0.377 | 0.616 | 0.491 | 0.435 | 0.417 | 0.519 | 0.474 | 0.507 | 0.777 | 0.438 | 0.438
AGHEEYSAMRD [KRAS_Y64_Q61H] | 0.797 | 0.462 | 0.578 | 0.51 | 0.588 | 0.43 | 0.981 | 0.588 | 0.542 | 0.854 | 0.532 | 0.616 | 0.558 | 0.777 | 0.713 | 0.512
AGNPAYRSFSN [IL4R_Y497] | 0.52 | 0.347 | 0.318 | 0.366 | 0.414 | 0.389 | 0.575 | 0.402 | 0.424 | 0.447 | 0.39 | 0.618 | 0.45 | 0.751 | 0.466 | 0.431
AGQEDDDRLRP [RAC1_Y64_Y64D] | 1.15 | 0.497 | 0.669 | 0.607 | 0.637 | 0.572 | 1.28 | 0.608 | 0.591 | 1.12 | 0.439 | 0.703 | 0.46 | 0.867 | 1.28 | 0.528
AGQERYRAITS [RAB11B_Y73] | 0.641 | 0.413 | 0.53 | 0.613 | 0.466 | 0.469 | 0.627 | 0.554 | 0.527 | 0.704 | 0.487 | 0.605 | 0.512 | 0.938 | 0.412 | 0.404
AGTIPYHAHLD [ASS1_Y291_L290P] | 0.507 | 0.395 | 0.369 | 0.458 | 0.435 | 0.357 | 0.645 | 0.415 | 0.484 | 0.447 | 0.456 | 0.474 | 0.377 | 0.838 | 0.772 | 0.554

Sequence | phosphorylation enrichment (AncSZ) | phosphorylation enrichment (EPHB1) | phosphorylation enrichment (EPHB2) | phosphorylation enrichment (FGFR1) | phosphorylation enrichment (FGFR3) | phosphorylation enrichment (Fer (mouse)) | phosphorylation enrichment (Fes) | phosphorylation enrichment (Fyn) | phosphorylation enrichment (Hck) | phosphorylation enrichment (Jak2) | phosphorylation enrichment (MERTK) | phosphorylation enrichment (c-Abl (mouse)) | phosphorylation enrichment (c-Src) | SH2 binding enrichment (Grb2 SH2) | SH2 binding enrichment (SHP2-C SH2) | SH2 binding enrichment (c-Src SH2)
AIQDAYMHITS [ADCY10_Y318] | 0.671 | 0.469 | 0.492 | 0.576 | 0.523 | 0.497 | 0.647 | 0.517 | 0.457 | 0.584 | 0.542 | 0.588 | 0.483 | 0.825 | 0.742 | 1.27
AIYEGYALPHA [ACTC1_Y171_P166A] | 1.77 | 20.8 | 30.1 | 0.761 | 0.773 | 22.6 | 1.37 | 15.9 | 13.7 | 0.789 | 13.8 | 18.1 | 11.3 | 0.792 | 0.726 | 2.48
AKLKDYFIFNK [CCDC42_Y149_YF] | 0.82 | 0.417 | 0.513 | 1.49 | 1 | 0.487 | 0.783 | 0.465 | 0.478 | 0.759 | 0.56 | 0.435 | 0.658 | 1.37 | 0.847 | 0.846
AKQVGCENAGT [PC_Y304_Y304C] | 0.749 | 0.407 | 0.455 | 0.391 | 0.484 | 0.42 | 0.83 | 0.487 | 0.408 | 0.706 | 0.442 | 0.638 | 0.428 | 0.803 | 0.694 | 0.455
AKRKGYDMRVD [NEB_Y2770] | 0.459 | 0.295 | 0.339 | 0.292 | 0.297 | 0.358 | 0.477 | 0.47 | 0.355 | 0.431 | 0.394 | 0.42 | 0.363 | 0.755 | 0.728 | 0.464
ALAHKYDGGGG [HBB_Y146_H147D] | 0.985 | 0.464 | 0.655 | 0.751 | 0.494 | 0.635 | 0.7 | 0.367 | 0.473 | 0.825 | 0.54 | 0.663 | 0.478 | 0.765 | 0.357 | 0.401
ALDHKYHGGGG [HBB_Y146_A143D] | 0.458 | 0.342 | 0.355 | 0.365 | 0.392 | 0.321 | 0.526 | 0.375 | 0.406 | 0.455 | 0.381 | 0.425 | 0.372 | 0.863 | 0.6 | 0.479
ALRASYTPSPA [ESS2_Y418] | 0.448 | 0.352 | 0.34 | 0.366 | 0.389 | 0.367 | 0.471 | 0.332 | 0.333 | 0.294 | 0.326 | 0.329 | 0.369 | 0.893 | 0.624 | 0.536
ANAYIYDVQLP [L1CAM_Y420_V421D] | 1.25 | 3.15 | 2.78 | 0.65 | 0.89 | 1.72 | 1.05 | 10.3 | 6.89 | 0.905 | 9.63 | 0.954 | 7.22 | 0.854 | 1.54 | 0.773
ANNQRYAFMPL [TMEM87B_Y460] | 0.588 | 0.655 | 0.591 | 0.535 | 0.566 | 0.394 | 0.696 | 0.436 | 0.393 | 0.621 | 5.61 | 0.528 | 0.485 | 0.821 | 0.84 | 1.42
ANSPVYVPTTR [GATA6_Y188_S184N] | 0.506 | 0.371 | 0.405 | 0.419 | 0.441 | 0.44 | 0.667 | 0.384 | 0.583 | 0.821 | 0.468 | 0.52 | 0.448 | 0.834 | 0.783 | 0.506
ANVKWYRNGRE | 0.867 | 0.509 | 0.578 | 0.409 | 0.485 | 0.457 | 0.738 | 0.43 | 0.484 | 0.665 | 0.468 | 0.479 | 0.485 | 0.658 | 0.487 | 0.512
AQESNYRLLRR [SLC20A2_Y377] | 0.738 | 0.48 | 0.498 | 0.409 | 0.527 | 0.414 | 0.688 | 0.45 | 0.443 | 0.593 | 0.406 | 0.984 | 0.365 | 0.823 | 0.439 | 0.456
ARRHPYFFAPE [ALB_Y172_Y174F] | 1.09 | 0.546 | 0.635 | 2.85 | 1.86 | 0.559 | 0.746 | 0.58 | 0.402 | 0.726 | 0.588 | 0.538 | 0.721 | 0.821 | 0.566 | 0.525
ASIVDYNIIGW [MYH7_Y588_G584S] | 1.11 | 0.742 | 0.528 | 0.948 | 0.865 | 0.59 | 1.22 | 0.45 | 0.605 | 0.947 | 0.498 | 0.92 | 0.514 | 0.761 | 0.769 | 0.535
ASTHIYQIMNH [ITK_Y588_V587I] | 0.562 | 8.67 | 2.63 | 0.735 | 0.624 | 6.35 | 0.754 | 4.85 | 5.65 | 0.469 | 6.62 | 1.24 | 4.36 | 0.923 | 1.41 | 5.44
LSDGPYSNPYE [EPOR_Y485] |  |  |  |  |  |  |  |  |  | 3.98 |  | 3.22 | 3.36 | 1.39 | 0.703 | 5.44
